The values below come from patent US20210009697A1 (Five Prime, published 2021).

For assay [1], the target named is T1, BTLA (UniProt Q7Z6A9 31-151, limits assumed).
T1 construct: also called B- and T-lymphocyte attenuator
T1 sequence (looked up): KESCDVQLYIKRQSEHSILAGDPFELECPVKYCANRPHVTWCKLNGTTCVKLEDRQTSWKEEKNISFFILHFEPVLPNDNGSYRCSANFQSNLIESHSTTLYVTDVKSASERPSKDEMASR
Nature of the assay: in vitro, method not described.

Assay [2] concerns the target T2, CTLA-4 (human, UniProt P16410 37-162, limits assumed).
T2 construct: also called cytotoxic T lymphocyte antigen-4
T2 sequence (looked up): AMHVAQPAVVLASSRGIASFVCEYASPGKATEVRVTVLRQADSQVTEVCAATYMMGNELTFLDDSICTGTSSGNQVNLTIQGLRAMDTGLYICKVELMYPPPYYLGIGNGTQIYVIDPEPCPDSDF
Nature of the assay: in vitro, method not described.

Assay [3] deals with T3, ICOS (UniProt Q9Y6W8 21-141, limits assumed).
T3 construct: also called inducible co-stimulator
T3 sequence (looked up): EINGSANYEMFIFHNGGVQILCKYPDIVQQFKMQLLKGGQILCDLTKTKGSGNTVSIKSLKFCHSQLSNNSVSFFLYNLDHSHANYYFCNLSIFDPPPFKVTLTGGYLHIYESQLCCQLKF
The experiment in a line: in vitro, method not described.

Assay [4] has as its target T4, human colony stimulating factor 1 receptor (CSF1R) (human, UniProt P07333 20-506, limits assumed).
T4 construct: In the monocyte assays the receptor is the endogenous one on primary human monocytes; also called hCSF1R
The experiment in a line: not described.

Assay [5] deals with T5, mouse CSF1R (mouse, UniProt P09581 20-511, limits assumed).
T5 construct: In the mNFS60 proliferation assay the receptor is that of the cell line
T5 sequence (looked up): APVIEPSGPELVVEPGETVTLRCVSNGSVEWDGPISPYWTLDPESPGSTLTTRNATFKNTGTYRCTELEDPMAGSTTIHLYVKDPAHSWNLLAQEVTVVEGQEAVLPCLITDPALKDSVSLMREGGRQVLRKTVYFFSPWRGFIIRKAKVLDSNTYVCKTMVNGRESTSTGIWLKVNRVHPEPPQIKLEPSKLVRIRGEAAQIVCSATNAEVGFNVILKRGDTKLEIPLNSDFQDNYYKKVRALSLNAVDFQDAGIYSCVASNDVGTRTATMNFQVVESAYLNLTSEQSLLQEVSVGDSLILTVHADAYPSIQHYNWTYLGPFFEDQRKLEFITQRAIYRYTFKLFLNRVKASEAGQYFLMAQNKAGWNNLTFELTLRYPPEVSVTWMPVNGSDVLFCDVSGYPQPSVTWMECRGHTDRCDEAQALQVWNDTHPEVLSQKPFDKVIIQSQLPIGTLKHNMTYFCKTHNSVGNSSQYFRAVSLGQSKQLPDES
The experiment in a line: not described.

T4 sequence (P07333 20-506 limits assumed): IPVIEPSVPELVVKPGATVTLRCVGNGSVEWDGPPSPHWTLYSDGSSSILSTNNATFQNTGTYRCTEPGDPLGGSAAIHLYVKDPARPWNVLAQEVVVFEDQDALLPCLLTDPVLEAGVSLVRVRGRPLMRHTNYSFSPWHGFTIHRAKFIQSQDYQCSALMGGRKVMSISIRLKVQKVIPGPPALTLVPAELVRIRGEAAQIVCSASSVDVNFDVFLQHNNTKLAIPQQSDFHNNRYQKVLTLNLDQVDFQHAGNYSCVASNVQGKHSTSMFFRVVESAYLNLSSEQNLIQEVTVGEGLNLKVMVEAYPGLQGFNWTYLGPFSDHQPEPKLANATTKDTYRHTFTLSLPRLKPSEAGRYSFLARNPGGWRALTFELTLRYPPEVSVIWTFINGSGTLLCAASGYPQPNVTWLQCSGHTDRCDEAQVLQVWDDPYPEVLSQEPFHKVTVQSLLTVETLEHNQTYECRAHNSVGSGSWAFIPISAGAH

B1: Nivolumab (antibody, human IgG4 S228P, kappa, V domains shown)
VH: QVQLVESGGGVVQPGRSLRLDCKASGITFSNSGMHWVRQAPGKGLEWVAVIWYDGSKRYYADSVKGRFTISRDNSKNTLFLQMNSLRAEDTAVYYCATNDDYWGQGTLVTVSS
VL: EIVLTQSPATLSLSPGERATLSCRASQSVSSYLAWYQQKPGQAPRLLIYDASNRATGIPARFSGSGSGTDFTLTISSLEPEDFAVYYCQQSSNWPRTFGQGTKVEIKR
notes: also called Opdivo; 5C4
Turning to B1, the binding result in assay [1], in assay [2] and in assay [3] was “no binding” in each case.

B2: Cabiralizumab (antibody, human IgG4 S228P, kappa, V domains shown)
VH: QVQLVQSGAEVKKPGSSVKVSCKASGYTFTDNYMIWVRQAPGQGLEWMGDINPYNGGTTFNQKFKGRVTITADKSTSTAYMELSSLRSEDTAVYYCARESPYFSNLYVMDYWGQGTLVTVSS
VL: EIVLTQSPATLSLSPGERATLSCKASQSVDYDGDNYMNWYQQKPGQAPRLLIYAASNLESGIPARFSGSGSGTDFTLTISSLEPEDFAVYYCHLSNEDLSTFGGGTKVEIKR
notes: also called FPA008; HuAb1
For B2, the binding result in assay [4] is “binds”; in assay [5] it was “no binding”.
